B1: HHH_rd1_0493 (parent)
chain: RDEDEKEKIKEALKRGNEDKAKEIAKRANVSPEEYERLRKEAE

Variants of: B1
Assay: folding stability dG (cDNA display proteolysis); higher = more stable
Conditions: PBS, room temperature

Variant	folding stability dG
RDEDEKEKIKEALKRGNEDKAKMIAKRANVSPEEYERLRKEAE [E23M]	9.73 kJ/mol
RDEDEKEKIKEALKRGNEDKAKRIAKRANVSPEEYERLRKEAE [E23R]	10 kJ/mol
RDEDEKEKIKEALKRGNEDKAKHIAKRANVSPEEYERLRKEAE [E23H]	8.2 kJ/mol
RDEDEKEKIKEALKRGNEDKAKCIAKRANVSPEEYERLRKEAE [E23C]	10.4 kJ/mol
RDEDEKEKIKEALKRGNEDKAKLIAKRANVSPEEYERLRKEAE [E23L]	9.02 kJ/mol
RDEDEKEKIKEALKRGNEDKAKVIAKRANVSPEEYERLRKEAE [E23V]	9.1 kJ/mol
RDEDEKEKIKEALKRGNEDKAKWIAKRANVSPEEYERLRKEAE [E23W]	7.51 kJ/mol
RDEDEKEKIKEALKRGNEDKAKPIAKRANVSPEEYERLRKEAE [E23P]	2.25 kJ/mol
RDEDEKEKIKEALKRGNEDKAKYIAKRANVSPEEYERLRKEAE [E23Y]	7.5 kJ/mol
RDEDEKEKIKEALKRGNEDKAKSIAKRANVSPEEYERLRKEAE [E23S]	10.1 kJ/mol
RDEDEKEKIKEALKRGNEDKAKAIAKRANVSPEEYERLRKEAE [E23A]	12 kJ/mol
RDEDEKEKIKEALKRGNEDKAKGIAKRANVSPEEYERLRKEAE [E23G]	8.02 kJ/mol
RDEDEKEKIKEALKRGNEDKAKTIAKRANVSPEEYERLRKEAE [E23T]	9.27 kJ/mol
RDEDEKEKIKEALKRGNEDKAKFIAKRANVSPEEYERLRKEAE [E23F]	7.1 kJ/mol
RDEDEKEKIKEALKRGNEDKAKDIAKRANVSPEEYERLRKEAE [E23D]	10.7 kJ/mol
RDEDEKEKIKEALKRGNEDKAKIIAKRANVSPEEYERLRKEAE [E23I]	9.85 kJ/mol
RDEDEKEKIKEALKRGNEDKAKKIAKRANVSPEEYERLRKEAE [E23K]	9.46 kJ/mol
RDEDEKEKIKEALKRGNEDKAKQIAKRANVSPEEYERLRKEAE [E23Q]	11.4 kJ/mol
RDEDEKEKIKEALKRGNEDKAKNIAKRANVSPEEYERLRKEAE [E23N]	8.45 kJ/mol
RDEDEKEKIKEALKRGNEDKAKEIFKRANVSPEEYERLRKEAE [A25F]	2.91 kJ/mol

Variant	folding stability dG
RDEDEKEKIKEALKRGNEDKAKEIEKRANVSPEEYERLRKEAE [A25E]	2.59 kJ/mol
RDEDEKEKIKEALKRGNEDKAKEIIKRANVSPEEYERLRKEAE [A25I]	3.1 kJ/mol
RDEDEKEKIKEALKRGNEDKAKEIDKRANVSPEEYERLRKEAE [A25D]	1.85 kJ/mol
RDEDEKEKIKEALKRGNEDKAKEIGKRANVSPEEYERLRKEAE [A25G]	5.46 kJ/mol
RDEDEKEKIKEALKRGNEDKAKEIKKRANVSPEEYERLRKEAE [A25K]	3.54 kJ/mol
RDEDEKEKIKEALKRGNEDKAKEICKRANVSPEEYERLRKEAE [A25C]	6.43 kJ/mol
RDEDEKEKIKEALKRGNEDKAKEIHKRANVSPEEYERLRKEAE [A25H]	2.29 kJ/mol
RDEDEKEKIKEALKRGNEDKAKEWAKRANVSPEEYERLRKEAE [I24W]	5.61 kJ/mol
RDEDEKEKIKEALKRGNEDKAKEAAKRANVSPEEYERLRKEAE [I24A]	6.15 kJ/mol
RDEDEKEKIKEALKRGNEDKAKEYAKRANVSPEEYERLRKEAE [I24Y]	7.22 kJ/mol
RDEDEKEKIKEALKRGNEDKAKEHAKRANVSPEEYERLRKEAE [I24H]	6.99 kJ/mol
RDEDEKEKIKEALKRGNEDKAKESAKRANVSPEEYERLRKEAE [I24S]	3.85 kJ/mol
RDEDEKEKIKEALKRGNEDKAKECAKRANVSPEEYERLRKEAE [I24C]	7.41 kJ/mol
RDEDEKEKIKEALKRGNEDKAKELAKRANVSPEEYERLRKEAE [I24L]	11.7 kJ/mol
RDEDEKEKIKEALKRGNEDKAKEQAKRANVSPEEYERLRKEAE [I24Q]	4.73 kJ/mol
RDEDEKEKIKEALKRGNEDKAKEVAKRANVSPEEYERLRKEAE [I24V]	7.83 kJ/mol
RDEDEKEKIKEALKRGNEDKAKEPAKRANVSPEEYERLRKEAE [I24P]	2.47 kJ/mol
RDEDEKEKIKEALKRGNEDKAKEFAKRANVSPEEYERLRKEAE [I24F]	6.18 kJ/mol
RDEDEKEKIKEALKRGNEDKAKERAKRANVSPEEYERLRKEAE [I24R]	4.35 kJ/mol
RDEDEKEKIKEALKRGNEDKAKEDAKRANVSPEEYERLRKEAE [I24D]	3.97 kJ/mol

Variant	folding stability dG
RDEDEKEKIKEALKRGNEDKAKETAKRANVSPEEYERLRKEAE [I24T]	5.51 kJ/mol
RDEDEKEKIKEALKRGNEDKAKEEAKRANVSPEEYERLRKEAE [I24E]	4.84 kJ/mol
RDEDEKEKIKEALKRGNEDKAKENAKRANVSPEEYERLRKEAE [I24N]	2.95 kJ/mol
RDEDEKEKIKEALKRGNEDKAKEKAKRANVSPEEYERLRKEAE [I24K]	2.61 kJ/mol
RDEDEKEKIKEALKRGNEDKAKEGAKRANVSPEEYERLRKEAE [I24G]	3.05 kJ/mol
RDEDEKEKIKEALKRGNEDKAKEMAKRANVSPEEYERLRKEAE [I24M]	8.9 kJ/mol
RDEDEKEKIKEALKRGNEDKAHEIAKRANVSPEEYERLRKEAE [K22H]	10.3 kJ/mol
RDEDEKEKIKEALKRGNEDKALEIAKRANVSPEEYERLRKEAE [K22L]	13 kJ/mol
RDEDEKEKIKEALKRGNEDKAYEIAKRANVSPEEYERLRKEAE [K22Y]	8.81 kJ/mol
RDEDEKEKIKEALKRGNEDKAIEIAKRANVSPEEYERLRKEAE [K22I]	11.7 kJ/mol
RDEDEKEKIKEALKRGNEDKANEIAKRANVSPEEYERLRKEAE [K22N]	8.84 kJ/mol
RDEDEKEKIKEALKRGNEDKAPEIAKRANVSPEEYERLRKEAE [K22P]	2.56 kJ/mol
RDEDEKEKIKEALKRGNEDKASEIAKRANVSPEEYERLRKEAE [K22S]	9.2 kJ/mol
RDEDEKEKIKEALKRGNEDKAVEIAKRANVSPEEYERLRKEAE [K22V]	10.2 kJ/mol
RDEDEKEKIKEALKRGNEDKAQEIAKRANVSPEEYERLRKEAE [K22Q]	11.9 kJ/mol
RDEDEKEKIKEALKRGNEDKATEIAKRANVSPEEYERLRKEAE [K22T]	9.38 kJ/mol
RDEDEKEKIKEALKRGNEDKAREIAKRANVSPEEYERLRKEAE [K22R]	13.4 kJ/mol
RDEDEKEKIKEALKRGNEDKAWEIAKRANVSPEEYERLRKEAE [K22W]	11.5 kJ/mol
RDEDEKEKIKEALKRGNEDKAMEIAKRANVSPEEYERLRKEAE [K22M]	12.7 kJ/mol

From the MegaScale stability set (Tsuboyama et al. 2023)
